To fix the notation:
B3: endogenous MFSD7C of mouse bone marrow-derived macrophages (other, UniProt Q91X85 1-551, looked up)
chain: MVNESLNQEESNDRPAPESEFQMDTSYSTQPSGSIHPSVSGHPSVSGHPSVSGHPSVSIHPSVSIDPSVSVRPSSSALPSTLAQPSGLTHHSSLVREDSVIKVSKRRWVVVLVFSCYSLCNAFQWIQYGSINNIFMNFYGVSAFAIDWLSMCYMLTYIPLLLPVAWMLEKFGLRTIAITGSALNCLGAWVKLGSLEPHLFPVTMVGQVICSVAQVFILGMPSRIASVWFGADEVSTACSVAVFGNQLGIAIGFLVPPVLVPNIKDPEKLAYHISIMFYIIGGVATFLFILVIIVFKEKPKHPPSRAQSLSYALATTDASYLSSIVRLFKNLNFVLLVITYGLNAGAFYALSTLLNRMVILHFPGEEVNAGRIGLTIVIAGMFGAMISGIWLDKSKTYKETTLVVYIMTLVGMVVYTFTLNLNHLWVVFITAGTLGFFMTGYLPLGFEFAVELTYPESEGVSSGLLNVSAQVFGIVFTISQGQIIDNHGTMFGNIFLCVFLALGSALTAFIKSDLRRQRANKDAPETKVQEEEEEEEGSNTSKVPVVSEAHL

One assay addresses T1, HP motif peptide (Homo sapiens, UniProt Q9UPI3).
T1 construct: a synthetic 14-amino acid HP motif peptide; made in house; host or cells: chemical solid-phase synthesis (Koch Institute Biopolymers & Proteomics Core)
The assay is described as follows: Isothermal titration calorimetry of HP motif peptide binding to heme (one-site model). The conditions noted are these: synthetic 14-amino acid HP motif peptide, one-site binding model. In general terms: Isothermal titration calorimetry measures the heat released or taken up as one component is titrated into another.

Another assay has as its target T2, NTD of human MFSD7C (Homo sapiens, UniProt Q9UPI3).
T2 construct: Plasmid harboring GST-His-tag-SUMO-NTD (amino acids 1-84); GST-His-tag-SUMO (N, cleaved yes); made in house; host or cells: Escherichia coli Lemo21(DE3)
T2 sequence (Q9UPI3 1-84): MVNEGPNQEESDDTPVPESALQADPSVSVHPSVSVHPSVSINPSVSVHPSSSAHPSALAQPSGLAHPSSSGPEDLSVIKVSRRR
Description: Isothermal titration calorimetry of NTD binding to heme. As to conditions: ITC, 25° C., 3-site sequential binding model.

The test system of another assay is SERCA2b. Description: SERCA2b level and ubiquitination by pull-down and Western blotting in transfected 293T cells. It counts as cell-based, murine. The method, then:
(§1) FIGS. 5A-5F show MFSD7C and heme regulate thermogenesis through SERCA2b in THP-1 cells. […] 30 hours later, MG132 was added into half of the cells and the other half was not treated. Another 35 hours later, some cells were treated with 40 μM heme for 1 hour before lysis. Cell lysates were immunoprecipitated with anti-FLAG antibody, and eluted, followed by anti-HA immunoprecipitation and elution. Total cell lysate and elute were subjected to Western blotting and probed with anti-SERCA2b or anti-MFSD7C antibodies. Shown are representative data from one of three experiments. […] 24 hrs later, cells were either not treated or treated with 10 μM MG132 for either 6 or 12 hours. The cells were lysed and subjected to FLAG pull-down and blotted with anti-MFSD7C, anti-SERCA2b and anti-ubiquitin antibodies. Shown are representative data from one of three experiments. […] Parental THP-1 cells were either not treated or treated with heme before lysis. Shown are representative data from one of four experiments. […] Shown are representative data from one of two experiments. […] Cells were washed and treated with 40 μM heme for one hour before flow cytometry. Representative FPT histograms from one of three experiments are shown. […] Shown are representative FPT histograms from one of three experiments. […]
(In western blotting, separated proteins are transferred to a membrane and probed.)

A further assay deals with T3, MFSD7C and SERCA2b (Mus musculus, UniProt Q91X85).
T3 construct: expressed in transfected cells; called 293T
Description: Co-IP of MFSD7C and SERCA2b in transfected 293T cells. It counts as cell-based, murine. As to conditions: 293T cells in the presence of MG132; none co-precipitated without. The method, then:
as §1

Assay [1] concerns the target endogenous human SERCA2b of THP-1 cells (human) (UniProt P16615). Description: cell-based or functional assay.
Assay [2] addresses B3. Description: co-IP of endogenous proteins, mouse bone marrow-derived macrophage lysate.
Assay [3] concerns the target T4, HA-tagged murine MFSD7C (mouse, UniProt Q91X85 1-551).
T4 construct: Expressed by transfection in 293FT / HEK 293T cells; also called HA-MFSD7C; pCMV6-AN-3HA-MFSD7C; not shown: N-terminal HA tag from vector pCMV6-AN-3HA
T4 sequence (looked up): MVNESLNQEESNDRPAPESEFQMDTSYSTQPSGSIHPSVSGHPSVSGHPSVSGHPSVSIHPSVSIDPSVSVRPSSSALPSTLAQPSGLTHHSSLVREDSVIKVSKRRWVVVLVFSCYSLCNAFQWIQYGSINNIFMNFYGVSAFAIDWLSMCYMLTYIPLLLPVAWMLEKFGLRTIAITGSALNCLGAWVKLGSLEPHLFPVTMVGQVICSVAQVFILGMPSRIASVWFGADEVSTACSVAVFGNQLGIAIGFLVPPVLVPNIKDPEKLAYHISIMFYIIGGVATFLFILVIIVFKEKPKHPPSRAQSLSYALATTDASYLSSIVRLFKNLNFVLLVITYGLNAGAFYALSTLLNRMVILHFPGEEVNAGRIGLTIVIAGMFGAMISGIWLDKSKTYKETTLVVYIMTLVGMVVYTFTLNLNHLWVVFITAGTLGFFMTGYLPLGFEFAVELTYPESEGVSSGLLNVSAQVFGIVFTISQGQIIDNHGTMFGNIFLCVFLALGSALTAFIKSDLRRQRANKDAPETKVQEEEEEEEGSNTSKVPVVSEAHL
Description: co-IP and Western blot, co-transfected 293FT cells, with or without 10 or 40 µM heme. The method, then:
(§2) Co-transfection and immunoprecipitation. For co-IP, HA-tagged MFSD7C was co-transfected with FLAG-tagged HMOX1 (Origene Catalog No. MR203944), CYC1, COX4I1, NDUFA4, ATP5h, ATP5c1 into 293FT cells using TransIT®-LT1 Transfection Reagent (Mirus). Thirty-six hours after transfection, the cells were lysed using cold Lysis Buffer containing 20 mM Tris-HCl (pH 7.4), 150 mM NaCl, 0.1% NP-40, 10% glycerol, proteinase inhibitor (Sigma Catalog No. 4693132001), and phosphatase inhibitors (Sigma Catalog No. 4906845001). The clear supernatants from the lysate were incubated with M2-magnetic beads conjugated with anti-FLAG antibody (Sigma Catalog No. M8823) for 2 hours at 4° C. Then the beads were washed twice and eluted by the 3× FLAG peptides (Sigma Catalog No. F4799).
To determine the effect of heme on MFSD7C interactions with ETC components, HMOX1 or SERCA2b, 293FT cells were transiently transfected with HA-tagged murine MFSD7C and FLAG-tagged murine CYC1, NDUFA4, COX4i1, ATP5h, ATP5c1, HMOX1 or SERCA2b. 35 hrs later, co-transfected cells were incubated with DMSO (vehicle) or 10 μM or 40 μM of heme for one hour before lysis. Cell lysates were precipitated with anti-HA antibody, eluted with HA peptide, further precipitated with anti-FLAG antibody, eluted with FLAG peptide, and then subjected to Western blotting with anti-HA and anti-FLAG antibodies. […]

Assay [4] concerns the target T5, endogenous mouse SERCA2b (ATP2a2) (mouse, UniProt O55143 1-1044).
T5 construct: also called endogenous SERCA2b
Description: co-IP of endogenous proteins, mouse bone marrow-derived macrophages.

Assay [5] concerns the target T4, HA-tagged murine MFSD7C. The assay is described as follows: co-IP and Western blot, co-transfected 293FT cells, without heme (less or very little with 10 or 40 µM heme). The method, then:
as §2
To determine the effect of heme on MFSD7C interactions with ETC components, HMOX1 or SERCA2b, 293FT cells were transiently transfected with HA-tagged murine MFSD7C and FLAG-tagged murine CYC1, NDUFA4, COX4i1, ATP5h, ATP5c1, HMOX1 or SERCA2b. 35 hrs later, co-transfected cells were incubated with DMSO (vehicle) or 10 μM or 40 μM of heme for one hour before lysis. Cell lysates were precipitated with anti-HA antibody, eluted with HA peptide, further precipitated with anti-FLAG antibody, eluted with FLAG peptide, and then subjected to Western blotting with anti-HA and anti-FLAG antibodies. Cells were treated with proteasome inhibitor MG132 for co-IP between MFSD7C and SERCA2b.

Like-named read-outs stand apart in the source and are kept apart here. Residues, ends and D or L forms follow the SMILES beside them. *: point of attachment. Cbz = O=C(OCc1ccccc1)*

Here are results for nine molecules from patent US20230313199A1, “TARGET FOR MODULATING BODY MASS” (Massachusetts Institute of Technology, priority 2020, published 2023).

By Kd is commonly meant the free concentration of one partner at which half of the binding sites on the other are occupied at equilibrium, for simple one-to-one binding.

endogenous human SERCA2b of THP-1 cells (human), sequence (P16615 whole entry): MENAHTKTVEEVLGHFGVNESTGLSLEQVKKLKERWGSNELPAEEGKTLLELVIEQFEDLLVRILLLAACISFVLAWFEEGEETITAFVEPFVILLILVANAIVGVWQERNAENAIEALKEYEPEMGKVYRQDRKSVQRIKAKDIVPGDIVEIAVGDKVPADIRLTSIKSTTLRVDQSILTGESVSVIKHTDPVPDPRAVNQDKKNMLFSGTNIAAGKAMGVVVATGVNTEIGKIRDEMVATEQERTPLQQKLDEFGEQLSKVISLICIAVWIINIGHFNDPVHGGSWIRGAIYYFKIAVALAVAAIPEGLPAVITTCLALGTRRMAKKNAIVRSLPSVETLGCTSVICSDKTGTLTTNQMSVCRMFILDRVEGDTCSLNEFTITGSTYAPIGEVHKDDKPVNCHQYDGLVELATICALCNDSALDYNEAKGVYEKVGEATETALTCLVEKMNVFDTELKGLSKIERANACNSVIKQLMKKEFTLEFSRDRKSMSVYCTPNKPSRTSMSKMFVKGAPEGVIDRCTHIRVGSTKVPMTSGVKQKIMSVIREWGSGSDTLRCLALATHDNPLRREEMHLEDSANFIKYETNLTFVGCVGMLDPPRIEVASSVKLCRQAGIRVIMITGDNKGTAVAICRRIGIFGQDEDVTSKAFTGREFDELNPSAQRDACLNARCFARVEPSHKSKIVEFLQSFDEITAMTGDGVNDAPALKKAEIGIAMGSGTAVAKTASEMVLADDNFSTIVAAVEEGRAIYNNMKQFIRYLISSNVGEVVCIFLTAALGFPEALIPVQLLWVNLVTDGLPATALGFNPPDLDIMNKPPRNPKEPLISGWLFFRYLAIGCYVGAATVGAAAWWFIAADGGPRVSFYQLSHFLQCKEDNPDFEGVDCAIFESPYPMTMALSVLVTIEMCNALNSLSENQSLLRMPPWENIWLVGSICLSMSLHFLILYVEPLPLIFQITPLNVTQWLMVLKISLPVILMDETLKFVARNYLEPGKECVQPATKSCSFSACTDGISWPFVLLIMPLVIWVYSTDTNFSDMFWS
T5 sequence (O55143 whole entry): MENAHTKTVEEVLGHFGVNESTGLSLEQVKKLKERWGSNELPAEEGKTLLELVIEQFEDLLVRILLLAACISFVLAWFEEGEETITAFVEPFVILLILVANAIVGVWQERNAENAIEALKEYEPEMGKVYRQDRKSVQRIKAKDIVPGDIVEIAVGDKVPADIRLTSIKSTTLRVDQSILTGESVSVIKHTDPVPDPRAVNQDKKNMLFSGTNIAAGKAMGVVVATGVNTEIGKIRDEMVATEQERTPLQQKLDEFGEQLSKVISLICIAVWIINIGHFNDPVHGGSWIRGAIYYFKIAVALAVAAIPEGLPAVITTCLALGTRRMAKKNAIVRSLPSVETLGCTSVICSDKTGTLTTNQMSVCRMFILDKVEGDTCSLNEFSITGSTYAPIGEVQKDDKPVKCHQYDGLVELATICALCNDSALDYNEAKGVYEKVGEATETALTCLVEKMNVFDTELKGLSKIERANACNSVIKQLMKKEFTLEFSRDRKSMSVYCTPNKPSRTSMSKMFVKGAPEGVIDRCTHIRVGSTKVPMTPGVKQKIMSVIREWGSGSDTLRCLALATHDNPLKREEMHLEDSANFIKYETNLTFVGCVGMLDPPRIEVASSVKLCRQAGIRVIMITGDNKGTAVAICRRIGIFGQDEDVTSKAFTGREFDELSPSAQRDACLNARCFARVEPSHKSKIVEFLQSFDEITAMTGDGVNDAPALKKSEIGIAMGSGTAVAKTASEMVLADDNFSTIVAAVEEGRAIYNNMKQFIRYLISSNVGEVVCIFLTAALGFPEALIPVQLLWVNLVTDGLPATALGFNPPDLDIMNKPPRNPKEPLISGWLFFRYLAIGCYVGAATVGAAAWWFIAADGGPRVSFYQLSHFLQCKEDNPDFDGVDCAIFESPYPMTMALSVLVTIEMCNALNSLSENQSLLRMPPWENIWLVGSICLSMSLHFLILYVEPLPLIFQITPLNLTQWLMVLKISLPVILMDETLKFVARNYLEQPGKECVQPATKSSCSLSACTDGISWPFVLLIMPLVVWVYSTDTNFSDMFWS

Take `C=CC1=C(C)C2=Cc3c(C=C)c(C)c4[n]3[Fe][n]3c(c(C)c(CCC(=O)O)c3=CC3=NC(=C4)C(C)=C3CCC(=O)O)=CC1=N2` [heme]: the Kd on HP motif peptide was roughly 1000 nM; on NTD of human MFSD7C (two strong of three heme sites on NTD, read-out: KD, two strong binding sites), roughly 1000 nM; on NTD of human MFSD7C (weaker of three heme sites on NTD, read-out: KD, one weaker site), roughly 220000 nM.

Turning to `CC(C)C[C@@H](C=O)NC(=O)[C@H](CC(C)C)NC(=O)[C@H](CC(C)C)NC(=O)OCc1ccccc1` [MG132] (Cbz-Leu-Leu-Leu-aldehyde), the “full-length and ubiquitinated SERCA2b precipitated” value in the assay on SERCA2b (10 μM MG132 for 6 or 12 hours, longer treatment) was “more full-length and ubiquitinated SERCA2b was precipitated”. The “level of SERCA2b detected” value in the assay with SERCA2b (presence vs absence of MG132) is reported as “significantly higher level of SERCA2b was detected”. The “SERCA2b co-precipitated with MFSD7C” value at MFSD7C and SERCA2b is on record as “an appreciable level was co-precipitated with MFSD7C”.

In assay [1], “endogenous human MFSD7C of THP-1 cells (from UniProt Q9UPI3 1-526)” had a Pearson's correlation coefficient value (co-localization, THP-1 cells after 40 µM heme for 1 hour) of 0.67 and a Pearson's correlation coefficient value (co-localization, confocal microscopy of THP-1 cells) of 0.89.

B1: endogenous HMOX1 of mouse bone marrow-derived macrophages (enzyme, UniProt P14901 1-289, looked up)
chain: MERPQPDSMPQDLSEALKEATKEVHIQAENAEFMKNFQKGQVSREGFKLVMASLYHIYTALEEEIERNKQNPVYAPLYFPEELHRRAALEQDMAFWYGPHWQEIIPCTPATQHYVKRLHEVGRTHPELLVAHAYTRYLGDLSGGQVLKKIAQKAMALPSSGEGLAFFTFPNIDSPTKFKQLYRARMNTLEMTPEVKHRVTEEAKTAFLLNIELFEELQVMLTEEHKDQSPSQMASLRQRPASLVQDTAPAETPRGKPQISTSSSQTPLLQWVLTLSFLLATVAVGIYAM
For the molecule B1, the binding result in [2] is “binds”.

B2: FLAG-tagged murine HMOX1 (heme oxygenase-1) (enzyme, mouse, UniProt P14901 1-289, looked up)
chain: MERPQPDSMPQDLSEALKEATKEVHIQAENAEFMKNFQKGQVSREGFKLVMASLYHIYTALEEEIERNKQNPVYAPLYFPEELHRRAALEQDMAFWYGPHWQEIIPCTPATQHYVKRLHEVGRTHPELLVAHAYTRYLGDLSGGQVLKKIAQKAMALPSSGEGLAFFTFPNIDSPTKFKQLYRARMNTLEMTPEVKHRVTEEAKTAFLLNIELFEELQVMLTEEHKDQSPSQMASLRQRPASLVQDTAPAETPRGKPQISTSSSQTPLLQWVLTLSFLLATVAVGIYAM
notes: Expressed by transfection; also called pCMV6-AC-DDK-HMOX1; not shown: C-terminal FLAG (DDK) tag
With B2, the binding result with HA-tagged murine MFSD7C [3] is “binds”.

As for B3, the binding result in assay [4] is on record as “binds”.

B4: FLAG-tagged murine CYC1 (other, mouse, UniProt Q9D0M3 85-325, looked up)
chain: SDLELHPPSYPWSHRGLLSSLDHTSIRRGFQVYKQVCSSCHSMDYVAYRHLVGVCYTEEEAKALAEEVEVQDGPNDDGEMFMRPGKLSDYFPKPYPNPEAARAANNGALPPDLSYIVRARHGGEDYVFSLLTGYCEPPTGVSLREGLYFNPYFPGQAIGMAPPIYTEVLEYDDGTPATMSQVAKDVATFLRWASEPEHDHRKRMGLKMLLMMGLLLPLTYAMKRHKWSVLKSRKLAYRPPK
notes: Complex III component; expressed by transfection; also called pCMV6-AC-DDK-Cyc1; not shown: C-terminal FLAG (DDK) tag
Consider B4, for which the binding result with HA-tagged murine MFSD7C [5] is given as “binds”.

B5: FLAG-tagged murine NDUFA4 (other, mouse, UniProt Q62425 1-82, looked up)
chain: MLRQILGQAKKHPSLIPLFVFIGAGGTGAALYVMRLALFNPDVSWDRKNNPEPWNKLGPNEQYKFYSVNVDYSKLKKEGPDF
notes: Complex IV component; expressed by transfection; also called pCMV6-AC-DDK-Ndufa4; not shown: C-terminal FLAG (DDK) tag
Consider B5, for which the binding result with HA-tagged murine MFSD7C [5] is “binds”.

B6: FLAG-tagged murine ATP5c1 (other, mouse, UniProt Q91VR2 26-298, looked up)
chain: ATLKDITRRLKSIKNIQKITKSMKMVAAAKYARAERELKPARVYGTGSLALYEKADIKAPEDKKKHLIIGVSSDRGLCGAIHSSVAKQMKNEVAALTAAGKEVMIVGVGEKIKGILYRTHSDQFLVSFKDVGRKPPTFGDASVIALELLNSGYEFDEGSIIFNQFKSVISYKTEEKPIFSLNTIATAETMSIYDDIDADVLQNYQEYNLANLIYYSLKESTTSEQSARMTAMDNASKNASDMIDKLTLTFNRTRQAVITKELIEIISGAAALD
notes: Complex V component; expressed by transfection; also called pCMV6-AC-DDK-ATP5c1; not shown: C-terminal FLAG (DDK) tag
Turning to B6, the binding result with HA-tagged murine MFSD7C [5] is “binds”.
